The values below are quoted from earlier work in article PMC10530501.

The target of one series is C1q (Homo sapiens) (UniProt P02745).
The next series deals with TLR4 (Homo sapiens) (UniProt O00206). Description: SPR. A general note: SPR reads the build-up and loss of mass on a sensor chip optically.
UniProt O00206, sequence (O00206 24-631): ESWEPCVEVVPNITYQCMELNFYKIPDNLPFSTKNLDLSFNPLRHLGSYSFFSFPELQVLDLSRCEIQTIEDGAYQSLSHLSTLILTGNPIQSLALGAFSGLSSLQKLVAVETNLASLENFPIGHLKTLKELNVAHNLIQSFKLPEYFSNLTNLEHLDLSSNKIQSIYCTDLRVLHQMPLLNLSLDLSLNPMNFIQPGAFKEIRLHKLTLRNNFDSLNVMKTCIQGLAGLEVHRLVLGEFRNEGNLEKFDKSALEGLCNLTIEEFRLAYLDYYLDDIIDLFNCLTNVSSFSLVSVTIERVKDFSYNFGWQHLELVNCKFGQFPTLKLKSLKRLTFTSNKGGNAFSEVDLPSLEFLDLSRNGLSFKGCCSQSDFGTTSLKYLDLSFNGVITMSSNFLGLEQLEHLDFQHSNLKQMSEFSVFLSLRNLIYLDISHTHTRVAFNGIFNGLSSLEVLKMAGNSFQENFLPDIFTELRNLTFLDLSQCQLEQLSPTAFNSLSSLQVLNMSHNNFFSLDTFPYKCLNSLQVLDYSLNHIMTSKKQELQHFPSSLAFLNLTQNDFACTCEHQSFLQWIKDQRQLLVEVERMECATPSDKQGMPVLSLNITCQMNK

UniProt P02745, sequence (P02745 23-245, chain 1 of 3): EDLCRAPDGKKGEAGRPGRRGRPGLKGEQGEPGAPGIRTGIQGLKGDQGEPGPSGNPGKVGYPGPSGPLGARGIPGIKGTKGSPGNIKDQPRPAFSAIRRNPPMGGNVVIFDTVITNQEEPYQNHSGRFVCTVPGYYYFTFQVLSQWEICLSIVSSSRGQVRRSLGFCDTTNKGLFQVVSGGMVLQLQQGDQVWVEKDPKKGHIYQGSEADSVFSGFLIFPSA
UniProt P02745, sequence (P02746 28-253, chain 2 of 3, further chain): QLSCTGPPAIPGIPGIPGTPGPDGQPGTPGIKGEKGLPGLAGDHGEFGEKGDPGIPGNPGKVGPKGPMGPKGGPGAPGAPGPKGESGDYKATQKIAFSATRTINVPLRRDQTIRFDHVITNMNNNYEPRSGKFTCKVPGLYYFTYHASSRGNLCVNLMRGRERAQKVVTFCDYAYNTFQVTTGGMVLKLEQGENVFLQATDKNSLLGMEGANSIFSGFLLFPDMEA
UniProt P02745, sequence (P02747 29-245, chain 3 of 3, further chain): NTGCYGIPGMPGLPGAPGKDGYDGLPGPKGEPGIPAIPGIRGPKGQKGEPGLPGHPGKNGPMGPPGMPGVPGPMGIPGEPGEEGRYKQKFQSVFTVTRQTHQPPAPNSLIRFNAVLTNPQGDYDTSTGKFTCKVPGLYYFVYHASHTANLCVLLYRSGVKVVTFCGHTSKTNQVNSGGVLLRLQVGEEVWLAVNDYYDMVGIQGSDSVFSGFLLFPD

As for HMGB1 (from UniProt P09429), the Kd (commonly the concentration at which binding is half-saturated) in the series with C1q (Homo sapiens) is 200 nM. Consider pCTS-L (from UniProt P07711), for which the Kd with TLR4 (Homo sapiens) is 20.2 nM.
